The data set deals with the molecule itself. The data set can be described thus: negative stain electron microscopy.

B1: zebrafish Impdh1a (544) (enzyme)
chain: not shown
As to B1, the binding result was “binds”.

(Values after PMC8688572 (The Journal of Biological Chemistry, 2021).)
